The source of these data is article PMC9063849, “Crystal structure of the middle and C-terminal domains of Hsp90α labeled with a coumarin derivative reveals a potential allosteric binding site as a drug target” (Acta Crystallographica. Section D, Structural Biology, 2022).

Data set [1] deals with the molecule itself. The data set can be described thus: crystal structure; MDCC-labelled Hsp90αMC crystallised in 0.1 M succinic acid pH 6.5, 12% PEG 3350, 20 mM calcium chloride; 3.5 Å; hexamer through crystallographic symmetry.
Data set [2] concerns the molecule itself. Kind of data set: SEC + other: dynamic light scattering; Hsp90αC+ at 1.0 mg/ml and FL Hsp90α at 2.1 mg/ml for DLS, 20 mM HEPES pH 7.2, 150 mM NaCl, 25°C; without inhibitors.
Data set [3] deals with the molecule itself. The data set can be described thus: SEC; size-exclusion chromatography of the purified protein, 20 mM HEPES Na pH 7.2, 150 mM NaCl. Background: SEC sorts molecules by how far they enter the pores of the column.
Data set [4] concerns the molecule itself. The data set can be described thus: dynamic light scattering; 3 mg/ml Hsp90αMC in 20 mM HEPES pH 7.2, 150 mM NaCl, 25°C; without or with 0.5 mM inhibitors (chlorobiocin, derrubone, coumermycin A1 or MDCC; 5% DMSO); dimers to hexamer.

B1: MDCC–Hsp90αMC (Hsp90α 293–699 covalently linked to MDCC at Cys374) (domain or fragment)
chain: not shown
modifications: MDCC {7-diethylamino-3-[N-(2-maleimidoethyl)carbamoyl]coumarin} covalently linked to Cys374
notes: Hsp90α, human, residues 293-699 (middle and C-terminal domains), labelled with MDCC at Cys374; Three molecules in the asymmetric unit; the hexamer is formed through crystallographic symmetry; also called MDCC-labeled Hsp90αMC; source: E. coli, purified; 0.2 mM Hsp90αMC incubated with 0.5 mM MDCC on ice for 30 min, supernatant used; not shown: 6xHis, N-terminal, cleaved
Broadly, the stoichiometry N is a count of units in the complex or per binding partner. Regarding B1, the “stoichiometry N” value in data set [1] stood at 6.

B2: Hsp90α_23–699_E47A (FL Hsp90α) (domain or fragment)
chain: not shown
notes: Hsp90α, human, residues 23-699 with E47A; N-terminal truncation (printed as Δ23) and C-terminal tail removed; also called full-length (FL) Hsp90α; source: E. coli, purified (same procedure as for Hsp90αMC); not shown: 6xHis, N-terminal, cleaved
Take B2: the “stoichiometry N” value in data set [2] stood at 6.

B3: Hsp90α_433–696 (Hsp90αC+) (domain or fragment)
chain: not shown
notes: Hsp90α, human, residues 433-696; The results speak of 'the CTD'; also called the CTD; source: E. coli, purified (same procedure as for Hsp90αMC); not shown: 6xHis, N-terminal, cleaved
In the case of B3, the “stoichiometry N” value in data set [2] amounted to 4.

B4: Hsp90α_293–699 (Hsp90αMC), middle and C-terminal domains of human Hsp90α (domain or fragment)
chain: not shown
notes: Hsp90α (90 kDa heat-shock protein alpha), human, residues 293-699 (middle and C-terminal domains); TEV site between the tag and the protein; also called Hsp90α MD and CTD; apo Hsp90αMC; source: E. coli, purified (Ni-NTA, TEV cleavage, second Ni-NTA, size-exclusion chromatography); not shown: 6xHis, N-terminal, cleaved
For the protein B4, the “stoichiometry N” value turned out to be 2 in data set [3] and 6 in data set [4].
